{"source": "paper PMC9841416"}
{"biological_target": "NTH-RNase E D346N D346N (Escherichia coli (K12, P21513-1 in alignment)) (UniProt P21513)", "test": "EMSA", "conditions": "25 mM bis-Tris propane pH 8.3, 100 mM KCl, 15 mM CaCl2, 0.1% (v/v) Triton X-100, 1 mM DTT, 20% (v/v) glycerol, 37 C 20 min; 1% agarose gel in 1x TBE", "units": {"Kd": "nM"}}
{"substance": "glnW-tRNA (no flanking single-stranded regions)", "Kd": 56}
{"substance": "glnW-metU segment", "Kd": 27}
{"substance": "metU-tRNA with 5' and 3' single-stranded regions", "Kd": 19}
